We go through one molecule from PMC11402830.

For this test, the target named is T1, human peptidyl arginine deiminase 6 (human), Q6TGC4.
T1 chain: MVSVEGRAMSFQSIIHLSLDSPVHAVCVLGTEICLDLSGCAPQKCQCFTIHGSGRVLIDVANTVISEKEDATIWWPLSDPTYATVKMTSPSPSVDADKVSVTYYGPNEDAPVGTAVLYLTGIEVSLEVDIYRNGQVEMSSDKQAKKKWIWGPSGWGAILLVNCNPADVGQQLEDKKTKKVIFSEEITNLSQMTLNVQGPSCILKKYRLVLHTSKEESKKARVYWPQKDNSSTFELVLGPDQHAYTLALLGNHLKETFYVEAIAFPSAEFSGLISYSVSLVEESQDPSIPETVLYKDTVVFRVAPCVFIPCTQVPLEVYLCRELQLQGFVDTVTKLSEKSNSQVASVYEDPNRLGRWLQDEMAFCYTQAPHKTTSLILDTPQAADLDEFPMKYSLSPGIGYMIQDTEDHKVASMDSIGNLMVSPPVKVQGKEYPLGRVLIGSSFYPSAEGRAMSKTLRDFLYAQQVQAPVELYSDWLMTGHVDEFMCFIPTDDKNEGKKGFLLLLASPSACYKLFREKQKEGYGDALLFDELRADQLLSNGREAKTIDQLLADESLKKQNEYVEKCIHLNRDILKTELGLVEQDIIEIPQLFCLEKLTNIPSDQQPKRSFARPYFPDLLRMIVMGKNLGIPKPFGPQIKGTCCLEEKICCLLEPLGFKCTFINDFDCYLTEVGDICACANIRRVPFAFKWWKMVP
Briefly: mass photometry; hPADI6 at 4 nM (diluted to about 40 nM in 50 mM Tris-HCl pH 7.5, 200 mM NaCl, 1 mM TCEP, then 2 uL into 18 uL PBS), TwoMP instrument; dimer to monomers. The note with it: remark: other sources report otherwise.

B1: human peptidyl arginine deiminase 6, Q6TGC4 1-694 (natural protein)
chain: T1 chain
For the molecule B1, the dimer:monomer ratio at 4 nM (dimer:monomer) was found to be 8 and the stoichiometry N (usually a count of units in the complex or per binding partner) was 2.
